Test results as given in US20220193132A1.

Key:
[1] = molecular target: recombinant human EGFRvIII protein (extracellular domain), native (human) (UniProt P00533); experiment: ELISA Exp 1, mAb supernatant
[2] = molecular target: recombinant human wild type EGFR protein (extracellular domain), native (human) (UniProt P00533); experiment: ELISA Exp 1, mAb supernatant
[3] = molecular target: recombinant human wild type EGFR protein (extracellular domain), denatured (human) (UniProt P00533); experiment: ELISA Exp 1, mAb supernatant
[4] = molecular target: recombinant human EGFRvIII protein (extracellular domain), denatured (human) (UniProt P00533); experiment: ELISA Exp 1, mAb supernatant
[5] = molecular target: wild type human EGFR, full length, overexpressed on U87MG cells (human) (UniProt P00533); experiment: flow cytometry dose-response on U87MG-EGFRwt cells, apparent Kd
[6] = molecular target: EGFRvIII, full length, overexpressed on glioblastoma cells (human) (UniProt P00533); experiment: flow cytometry dose-response on U87MG-EGFRvIII cells, apparent Kd
[7] = molecular target: wild type human EGFR, full length, overexpressed on U87MG cells (human) (UniProt P00533); experiment: cell-based or functional assay
[8] = molecular target: EGFRvIII, full length, overexpressed on glioblastoma cells (human) (UniProt P00533); experiment: cell-based or functional assay
[9] = molecular target: recombinant human EGFRvIII protein (extracellular domain), native (human) (UniProt P00533); experiment: ELISA Exp 2, purified mAb 1 ug/ml
[10] = molecular target: recombinant human wild type EGFR protein (extracellular domain), native (human) (UniProt P00533); experiment: ELISA Exp 2, purified mAb 1 ug/ml
[11] = molecular target: recombinant human EGFRvIII protein (extracellular domain), denatured (human) (UniProt P00533); experiment: ELISA Exp 2, purified mAb 1 ug/ml
[12] = molecular target: recombinant human wild type EGFR protein (extracellular domain), denatured (human) (UniProt P00533); experiment: ELISA Exp 2, purified mAb 1 ug/ml

| Substance | ELISA absorbance 405 nm [1] [A405] | ELISA absorbance 405 nm [2] [A405] | ELISA absorbance 405 nm [3] [A405] | ELISA absorbance 405 nm [4] [A405] | Kd [5] [nM] | Kd [6] [nM] | % internalization (pHrodo surrogate assay, vs 225 mAb) [7] [%] | % survival (DM1 secondary-conjugate ADC surrogate assay, vs mouse IgG) [7] [%] | % internalization (pHrodo surrogate assay, vs 225 mAb) [8] [%] | % survival (DM1 secondary-conjugate ADC surrogate assay, vs mouse IgG) [8] [%] | ELISA absorbance 405 nm [9] [A405] | ELISA absorbance 405 nm [10] [A405] | ELISA absorbance 405 nm [11] [A405] | ELISA absorbance 405 nm [12] [A405] |
| --- | --- | --- | --- | --- | --- | --- | --- | --- | --- | --- | --- | --- | --- | --- |
| 225 mAb (ATCC HB-8508) (antibody) | 1.08 | 1.2 | -0.01 | 0.001 | 2.2 | 2.2 | 101 | 52 | 100 | 49 | 1.5 | 1.32 | 0.004 | – |
| Neg ctrl mIgG (antibody) | – | – | – | – | – | – | – | – | < 3 | – | – | – | – | – |
| Neg ctrl mouse mAb (antibody) | – | – | – | – | – | – | – | > 98 | – | > 98 | -0.001 | – | – | 0 |
